For experiment [1], the target named is Glycoprotein IIb (GPIIb, also known as antigen CD41) (UniProt P08514). The experiment is described as follows: flow cytometry, percent of FDPDs stained; batch 5.
Experiment [2] shares this target. Put plainly: flow cytometry, percent of FDPDs stained; batch 7.
Experiment [3] shares this target. The experiment is described as follows: flow cytometry, percent of FDPDs stained; batch 2. (A flow cytometer gives signals particle by particle.)
Experiment [4] has the same target. Put plainly: flow cytometry, percent of FDPDs stained; batch 3.
The target is the same in experiment [5]. Put plainly: flow cytometry, percent of FDPDs stained; batch 1.
The target is the same in experiment [6]. The experiment is described as follows: flow cytometry, percent of FDPDs stained; batch 4.
For experiment [7] the target is unchanged. The experiment is described as follows: flow cytometry, percent of FDPDs stained; mean of 7 batches.
Experiment [8] has the same target. Put plainly: flow cytometry, percent of FDPDs stained; batch 6.
The target in experiment [9] is P-selectin (also called CD62P) (human) (UniProt P16109). The experiment is described as follows: flow cytometry, percent of CD41-positive FDPDs stained; batch 3.
Sequence of UniProt P16109 (P16109 42-830): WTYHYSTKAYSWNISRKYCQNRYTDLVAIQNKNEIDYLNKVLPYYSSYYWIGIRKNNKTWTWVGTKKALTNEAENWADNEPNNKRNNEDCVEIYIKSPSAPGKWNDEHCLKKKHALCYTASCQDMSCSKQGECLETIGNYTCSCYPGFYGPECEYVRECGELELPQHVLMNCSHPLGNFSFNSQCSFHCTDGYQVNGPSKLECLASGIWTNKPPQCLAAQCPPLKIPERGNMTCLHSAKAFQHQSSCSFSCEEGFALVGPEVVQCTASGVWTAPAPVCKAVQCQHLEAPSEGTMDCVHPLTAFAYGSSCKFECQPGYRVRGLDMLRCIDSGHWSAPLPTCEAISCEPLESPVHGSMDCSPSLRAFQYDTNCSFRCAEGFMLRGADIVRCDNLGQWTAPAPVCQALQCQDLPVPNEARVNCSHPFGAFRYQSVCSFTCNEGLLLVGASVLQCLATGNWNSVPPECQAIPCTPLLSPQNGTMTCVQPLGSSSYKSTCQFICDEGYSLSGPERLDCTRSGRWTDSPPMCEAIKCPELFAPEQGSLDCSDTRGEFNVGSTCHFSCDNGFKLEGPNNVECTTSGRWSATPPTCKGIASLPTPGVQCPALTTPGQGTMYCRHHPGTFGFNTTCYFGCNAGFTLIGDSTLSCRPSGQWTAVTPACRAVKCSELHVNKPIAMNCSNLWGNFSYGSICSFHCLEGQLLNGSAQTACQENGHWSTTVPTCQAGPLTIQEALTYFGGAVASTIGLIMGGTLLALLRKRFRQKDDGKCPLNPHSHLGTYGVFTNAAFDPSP
Experiment [10] has the same target. Put plainly: flow cytometry, percent of CD41-positive FDPDs stained; batch 6.
For experiment [11] the target is unchanged. The experiment is described as follows: flow cytometry, percent of CD41-positive FDPDs stained; batch 4.
For experiment [12] the target is unchanged. Put plainly: flow cytometry, percent of CD41-positive FDPDs stained; mean of 7 batches.
Experiment [13] shares this target. The experiment is described as follows: flow cytometry, percent of CD41-positive FDPDs stained; batch 2.
Experiment [14] shares this target. Put plainly: flow cytometry, percent of CD41-positive FDPDs stained; batch 5.
For experiment [15] the target is unchanged. Put plainly: flow cytometry, percent of CD41-positive FDPDs stained; batch 7.
Experiment [16] shares this target. Put plainly: flow cytometry, percent of CD41-positive FDPDs stained; batch 1.
The target is the same in experiment [17]. The experiment is described as follows: flow cytometry, human apheresis platelets after 20 µM TRAP-6.
For experiment [18] the target is unchanged. The experiment is described as follows: flow cytometry, human apheresis platelets without TRAP-6.
In experiment [19] the target is Thrombospondin (TSP1) (UniProt P07996). The experiment is described as follows: flow cytometry, fresh washed platelets activated with collagen and thrombin.
Sequence of UniProt P07996 (P07996 19-1170 limits assumed): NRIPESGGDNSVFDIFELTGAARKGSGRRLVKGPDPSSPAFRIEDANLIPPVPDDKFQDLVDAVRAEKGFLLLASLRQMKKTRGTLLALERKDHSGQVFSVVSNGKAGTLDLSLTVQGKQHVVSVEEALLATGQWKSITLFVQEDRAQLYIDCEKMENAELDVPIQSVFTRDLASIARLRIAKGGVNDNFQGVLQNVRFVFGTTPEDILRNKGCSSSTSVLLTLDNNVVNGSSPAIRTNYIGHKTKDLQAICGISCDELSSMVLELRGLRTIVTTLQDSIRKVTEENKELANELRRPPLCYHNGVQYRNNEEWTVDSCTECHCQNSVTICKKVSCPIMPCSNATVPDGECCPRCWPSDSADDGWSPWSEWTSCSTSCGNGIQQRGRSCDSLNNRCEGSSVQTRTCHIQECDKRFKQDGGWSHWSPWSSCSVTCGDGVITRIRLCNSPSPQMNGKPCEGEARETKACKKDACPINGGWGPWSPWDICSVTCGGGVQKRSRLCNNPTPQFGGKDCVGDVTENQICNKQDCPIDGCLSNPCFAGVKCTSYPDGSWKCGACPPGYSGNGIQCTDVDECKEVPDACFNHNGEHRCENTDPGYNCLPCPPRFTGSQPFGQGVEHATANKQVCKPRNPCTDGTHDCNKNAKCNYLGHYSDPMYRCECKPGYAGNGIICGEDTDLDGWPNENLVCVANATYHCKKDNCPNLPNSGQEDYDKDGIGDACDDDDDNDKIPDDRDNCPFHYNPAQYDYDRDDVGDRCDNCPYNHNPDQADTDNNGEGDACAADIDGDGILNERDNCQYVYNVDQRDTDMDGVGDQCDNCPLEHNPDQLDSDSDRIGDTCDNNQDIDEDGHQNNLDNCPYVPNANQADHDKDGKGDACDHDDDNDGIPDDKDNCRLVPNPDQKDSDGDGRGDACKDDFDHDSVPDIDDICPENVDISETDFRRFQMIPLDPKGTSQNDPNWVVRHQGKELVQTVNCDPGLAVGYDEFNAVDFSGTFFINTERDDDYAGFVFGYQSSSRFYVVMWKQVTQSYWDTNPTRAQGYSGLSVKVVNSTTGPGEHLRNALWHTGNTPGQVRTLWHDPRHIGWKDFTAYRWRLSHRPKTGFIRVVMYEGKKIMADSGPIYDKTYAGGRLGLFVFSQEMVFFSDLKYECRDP
For experiment [20] the target is unchanged. Put plainly: flow cytometry, resting fresh washed platelets.
Experiment [21] shares this target. Put plainly: flow cytometry, rehydrated baked FDPDs, average of lots.
Experiment [22] deals with Von Willebrand factor (vWF) (UniProt P04275). The experiment is described as follows: flow cytometry, fresh washed platelets activated with collagen and thrombin.
Sequence of UniProt P04275 (P04275 764-2813 limits assumed): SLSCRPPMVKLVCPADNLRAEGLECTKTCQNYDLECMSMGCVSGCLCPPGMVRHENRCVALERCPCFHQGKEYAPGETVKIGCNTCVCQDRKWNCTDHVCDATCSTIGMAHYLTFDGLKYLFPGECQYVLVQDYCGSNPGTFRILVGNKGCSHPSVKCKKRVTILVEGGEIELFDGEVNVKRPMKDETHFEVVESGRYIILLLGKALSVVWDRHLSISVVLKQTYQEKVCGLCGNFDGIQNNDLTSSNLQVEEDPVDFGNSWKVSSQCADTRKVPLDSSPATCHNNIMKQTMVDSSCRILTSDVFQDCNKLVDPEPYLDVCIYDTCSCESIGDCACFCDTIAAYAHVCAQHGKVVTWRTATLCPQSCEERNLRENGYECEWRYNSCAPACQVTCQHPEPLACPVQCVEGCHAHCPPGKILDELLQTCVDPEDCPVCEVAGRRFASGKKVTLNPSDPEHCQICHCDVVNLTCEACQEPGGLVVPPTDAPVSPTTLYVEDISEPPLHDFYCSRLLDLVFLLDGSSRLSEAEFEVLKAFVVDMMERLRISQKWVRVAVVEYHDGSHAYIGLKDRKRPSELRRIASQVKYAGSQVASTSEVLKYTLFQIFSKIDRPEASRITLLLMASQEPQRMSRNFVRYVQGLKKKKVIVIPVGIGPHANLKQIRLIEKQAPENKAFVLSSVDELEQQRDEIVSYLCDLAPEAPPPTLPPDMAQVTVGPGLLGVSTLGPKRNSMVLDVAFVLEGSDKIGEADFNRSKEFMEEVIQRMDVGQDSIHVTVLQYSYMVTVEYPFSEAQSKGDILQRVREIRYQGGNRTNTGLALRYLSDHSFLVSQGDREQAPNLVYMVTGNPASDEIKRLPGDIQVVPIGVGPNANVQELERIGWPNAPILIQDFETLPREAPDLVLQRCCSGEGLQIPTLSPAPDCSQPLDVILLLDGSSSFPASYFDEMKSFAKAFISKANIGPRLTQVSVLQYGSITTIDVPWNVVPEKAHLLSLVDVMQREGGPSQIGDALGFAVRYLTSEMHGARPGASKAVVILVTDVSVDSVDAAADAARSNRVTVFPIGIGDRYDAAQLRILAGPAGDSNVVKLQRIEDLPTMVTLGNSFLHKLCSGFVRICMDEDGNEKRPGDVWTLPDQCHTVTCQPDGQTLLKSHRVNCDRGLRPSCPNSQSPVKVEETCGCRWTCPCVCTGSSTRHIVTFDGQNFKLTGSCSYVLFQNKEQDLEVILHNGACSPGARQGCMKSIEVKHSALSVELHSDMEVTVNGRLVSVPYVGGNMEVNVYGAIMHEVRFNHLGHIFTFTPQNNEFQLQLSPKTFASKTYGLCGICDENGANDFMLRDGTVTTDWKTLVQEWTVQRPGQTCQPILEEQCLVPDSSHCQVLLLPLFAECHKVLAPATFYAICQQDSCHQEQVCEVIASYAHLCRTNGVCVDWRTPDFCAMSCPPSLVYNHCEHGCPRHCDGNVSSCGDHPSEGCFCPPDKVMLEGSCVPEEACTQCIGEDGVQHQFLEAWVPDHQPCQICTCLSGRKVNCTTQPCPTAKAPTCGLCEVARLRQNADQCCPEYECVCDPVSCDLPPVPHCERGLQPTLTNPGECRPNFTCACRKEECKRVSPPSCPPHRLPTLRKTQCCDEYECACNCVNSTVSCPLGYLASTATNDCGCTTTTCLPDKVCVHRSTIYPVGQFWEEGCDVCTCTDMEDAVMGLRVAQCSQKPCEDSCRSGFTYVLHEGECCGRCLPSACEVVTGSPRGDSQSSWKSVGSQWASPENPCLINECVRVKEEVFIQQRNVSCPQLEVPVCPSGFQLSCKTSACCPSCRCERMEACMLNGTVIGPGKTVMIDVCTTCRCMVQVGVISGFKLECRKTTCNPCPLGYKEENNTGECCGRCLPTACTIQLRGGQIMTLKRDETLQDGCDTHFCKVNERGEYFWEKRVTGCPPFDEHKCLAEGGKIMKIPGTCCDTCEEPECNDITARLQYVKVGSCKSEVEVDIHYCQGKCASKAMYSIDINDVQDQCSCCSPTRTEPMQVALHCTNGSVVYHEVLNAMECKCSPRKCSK
Experiment [23] has the same target. Put plainly: flow cytometry, resting fresh washed platelets.
Experiment [24] has the same target. Put plainly: flow cytometry, rehydrated baked FDPDs, average of lots.

Sequence of UniProt P08514 (P08514 32-1039 limits assumed): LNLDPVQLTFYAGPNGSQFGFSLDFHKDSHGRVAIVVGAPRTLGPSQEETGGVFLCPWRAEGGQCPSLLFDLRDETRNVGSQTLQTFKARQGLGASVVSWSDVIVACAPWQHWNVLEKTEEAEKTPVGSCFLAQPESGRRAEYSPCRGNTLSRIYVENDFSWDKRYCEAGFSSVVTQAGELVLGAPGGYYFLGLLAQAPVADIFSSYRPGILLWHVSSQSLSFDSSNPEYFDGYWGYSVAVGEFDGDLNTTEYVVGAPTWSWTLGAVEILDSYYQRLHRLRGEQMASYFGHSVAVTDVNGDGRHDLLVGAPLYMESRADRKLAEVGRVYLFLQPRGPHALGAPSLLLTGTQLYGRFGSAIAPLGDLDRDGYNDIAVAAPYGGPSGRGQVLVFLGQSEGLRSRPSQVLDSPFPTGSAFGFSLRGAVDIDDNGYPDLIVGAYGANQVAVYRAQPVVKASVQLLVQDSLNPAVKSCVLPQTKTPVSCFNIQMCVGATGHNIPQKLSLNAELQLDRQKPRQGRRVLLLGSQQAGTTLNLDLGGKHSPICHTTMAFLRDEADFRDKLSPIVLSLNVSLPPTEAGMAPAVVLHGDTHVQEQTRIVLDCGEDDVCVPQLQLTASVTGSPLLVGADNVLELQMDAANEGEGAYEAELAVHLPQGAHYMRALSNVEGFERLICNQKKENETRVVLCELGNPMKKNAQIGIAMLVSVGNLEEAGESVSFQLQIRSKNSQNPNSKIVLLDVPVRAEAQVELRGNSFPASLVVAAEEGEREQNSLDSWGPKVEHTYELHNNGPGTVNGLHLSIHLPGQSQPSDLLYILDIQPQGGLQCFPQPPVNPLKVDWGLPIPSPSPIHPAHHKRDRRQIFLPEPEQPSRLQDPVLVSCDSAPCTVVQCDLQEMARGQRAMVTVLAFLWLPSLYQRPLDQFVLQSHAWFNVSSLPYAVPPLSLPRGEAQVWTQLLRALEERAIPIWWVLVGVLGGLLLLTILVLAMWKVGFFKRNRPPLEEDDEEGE

On to “anti-CD41 antibody (Beckman Coulter part #IM1416U)”, for which the CD41 Positivity (%) in [1] stood at 81.5%; in [2], 78.5%; in experiment [3], 79.4%; in [4], 85.7%; in [5] it was 81.5%; in [6] it was 78.2%. The CD41 Positivity (%) in [7] worked out at 81.3%; in experiment [8], 84%.
For the substance “anti-CD62P antibody (BD Biosciences Cat. No. 550888)”, the CD62 Positivity (%) in experiment [9] amounted to 89.8%; in [10], 87.3%; in experiment [11] it was 92.4%; in [12], 91.4%; in [13] it was 93.1%; in experiment [14] it was 92.5%. For the same substance, the CD62 Positivity (%) in experiment [15] is 90.7%; in [16], 94.2%.
In the case of “anti-CD62P-PE antibody (BD Pharmingen Cat #550561 Lot #6322976)”, the MFI in experiment [17] worked out at 127000 MFI; in [18], 2350 MFI.
On to “anti-Thrombospondin-1 (TSP-1) antibody (Santa Cruz Biotech Cat #sc-59887 AF594)”, for which the values for the MFI in the experiment with Thrombospondin (TSP1) [19], with Thrombospondin (TSP1) [20] and in the experiment with Thrombospondin (TSP1) [21] were 3310 MFI, 1220 MFI and 91400 MFI, respectively.
Take “anti-Von Willebrand Factor antibody (Novus Biologicals Cat #NBP2-54379PE)”: the MFI in [22] was 19700 MFI; in experiment [23], 4770 MFI; in [24] it was 14000 MFI.

These data come from US20250064988A1.
